Reference: the Human Domainome abundance scans (Beltran et al. 2025)

B1: Ventral anterior homeobox 1, residues 102 to 157; numbered along this chain, Q5SQQ9 (parent)
chain: RTRTSFTAEQLYRLEMEFQRCQYVVGRERTELARQLNLSETQVKVWFQNRRTKQKK

Variants of: B1
Experiment: abundance fitness (aPCA) (normalised: wild type 0, dead -1); higher = more abundant; growth selection in yeast, the domain comes from the species named
Details: Homo sapiens

Abundance fitness, by site and new letter:
M16: I -0.295, F -0.285, W -0.291, S -0.027, D 0.075, V -0.09, C -0.055, N -0.407, T -0.076, A -0.043, Q 0.008, K -0.301, P -1.12, Y -0.173, G -0.109, R -0.233
V25: T -0.087, F -0.073, N -0.326, R -0.16, A 0.042, E 0.204, W -0.633, P -0.29, Y -0.377, M -0.396, C 0.114, Q 0.121, S -0.071, H -0.011, G 0.003, I -0.226, K -0.18
R20: V -0.162, S -0.04, W -0.632, I -0.386, Q -0.226, D 0.149, K -0.428, Y -0.436, C -0.303, N 0.251, T -0.305, M -0.001, L -0.223, F -0.47, G -0.409, E -0.261
V24: M -0.16, W -0.416, N -0.25, Y -0.421, H -0.307, E -0.367, F -0.408, Q -0.559, L 0.059, A -0.12, S -0.09, C 0.12, R -0.243, G -0.436, D -0.347, T -0.074, P -0.167, I -0.086
Y23: L 0.055, H 0.04, G -0.21, C -0.145, M 0.181, E 0.012, N 0.069, Q 0.132, F -0.088, V -0.045, W -0.527, A 0.082, S 0.03, K 0.051, D -0.164, I -0.117
E17: H -0.044, I -0.544, R -0.421, C -0.209, F -0.031, T -0.297, L -0.558, V -0.296, G -0.679, W -0.359, S -0.294, M -0.281, K -0.604, D -0.65, Q -0.296
F18: L -0.927, Y -0.124, M -0.674, W -0.181, V -0.887, I -0.689, C -0.741
C21: R -0.229, Y -0.404, V -0.054, F -0.21, Q -0.37, D 0.16, P -0.231, E -0.101, S -0.013, K -0.169, L -0.377, A -0.166, G -0.16, W -0.635, T -0.019, M -0.434, H -0.215
E15: P -1.07, V -0.847, W -0.71, R -0.787, S -0.766, Q -1.01, N -0.564
Q19: G -0.133, I -0.165, V -0.153, D -0.161, C -0.225, W -0.213, M -0.133, P -0.732, Y -0.603, L -0.044, H -0.274, T -0.046, N -0.115, S -0.063, E -0.039, A -0.002, F -0.33, R -0.316
G26: C -0.547, A -0.155
Q22: R -0.32, I -0.38, M -0.249, T -0.17, P -0.133, D -0.081, A -0.033, H -0.251, F -0.585, E 0.024, N -0.285, K -0.103, V -0.324, W -0.383, Y -0.641, L -0.437, S -0.087, G 0.033
